Experimental findings from PMC6826516 are described below.

B1: LgBiT-TEAD1-Myc (TEAD1 aa 194-411), wild type [not stated] / SmBiT-TAZ-Flag (TAZ aa 13-119), wild type [not stated] (parent)
chain 1: PGQQVIHVTQDLDTDLEALFNSVMNPKPSSWRKKILPESFFKEPDSGSHSRQSSTDSSGGHPGPRLAGGAQHVRSHSSPASLQLGTGAGAAGSPAQQHAHLRQQSYD
chain 2: RSIGTTKLRLVEFSAFLEQQRDPDSYNKHLFVHIGHANHSYSDPLLESVDIRQIYDKFPEKKGGLKELFGKGPQNAFFLVKFWADLNCNIQDDAGAFYGVTSQYESSENMTVTCSTKVCSFGKQVVEKVETEYARFENGRFVYRINRSPMCEYMINFIHKLKHLPEKYMMNSVLENFTILLVVTNRDTQETLLCMACVFEVSNSEHGAQHHIYRLVKD

The variants in this assay derive from B1. The assay is described as follows: NanoBiT assay (split-luciferase biosensor) in lysates of transfected HEK293T cells. Particulars: with SmBiT-TAZ-Flag (TAZ aa 13-119), 48 h after transfection, equal amounts of each biosensor plasmid, read off a plot.
On to chain 2 E47A V49A I54A, for which the response (fold over LgBiT-TEAD1 alone) is 37.
